According to patent publication US20260258115A1 (MAPP BIOPHARMACEUTICAL, published 2026):

Legend:
[1] = molecular target: RSV fusion glycoprotein (RSV F) on RSV-A2 virus (respiratory syncytial virus, UniProt P03420 26-574); assay: cell-based or functional assay
[2] = molecular target: RSV prefusion F (preF), DS-Cav1 (respiratory syncytial virus, UniProt P03420 26-513); assay: BLI, IgG on sensor, 100 nM antigen
[3] = molecular target: RSV postfusion F (postF), F deltaFP (respiratory syncytial virus, UniProt P03420 26-513); assay: BLI, IgG on sensor, 100 nM antigen

B1: ADI-41415 (antibody, V domains shown)
VH: QVTLKESGPALVKPTQTLTLTCTFSGFSLSTSRTRVSWIRQPPGKALEWLARVDWDDDKFYNPVLKTRLSISKDPSKNQVVLTMTNVDPVDTATYYCVRMAHYGSGGYYVEYFQDWGQGTLVTVSS
VL: DIQLTQSPASLSASAGDRVTITCRASQNINRYLNWYQQQSGKAPKLLIYAASILQSGVPSRFSGSGSGTDFTLTITSLQPEDFAIYYCQQSYTTPKYTFGQGTKVEIK
notes: IgG1
Neutralization IC50 (RSV subtype A) [1]: > 25 µg/mL
Kd [2]: 1.08 nM
Kd [3]: 0.644 nM

B2: ADI-41393 (antibody, V domains shown)
VH: QVQLVQSGAEVKKPGESLKISCKGSGYSFTSYWIGWVRQMPGKGLEWMGIIYPGDSDTRYSPSFQGQVTISADKSTSTAYLQWSSLKASDSAMYYCARSEFSSSFDFWGQGTLVTVSS
VL: NFMLTQPHSVSESPGKTVTISCTGSSGSIASYYVQWYQLRPGSAPTTVIYEDNQRLSGVPDRFSGSIDSSSNSASLTISGLKTEDEADYYCQSYRSGIPWVFGGGTKLTVL
notes: IgG1; also called Ab 687
Neutralization IC50 (RSV subtype A) [1]: > 25 µg/mL
Kd [2]: 1.67 nM
Kd [3]: 0.247 nM

B3: ADI-41404 (antibody, V domains shown)
VH: QVQLVQSGAEVKKPGSSVKVSCKASGGTFSSYGISWVRQAPGQGLEWMGGIIPIFGTVSYAQKFRGRLTITAHEPTSTAYMDLSSLRSEDTAVYYCARINGRGWELSSLNYYYGMDVWGQGTTVTVSS
VL: EIVLTQSPGTLSLSPGERGTLSCRASQSVASSYLAWYQQKPGQAPRLLIYGATSRATGIPDRFSGSGSGTDFTLTISRLEPEDFAVYYCQQYGSSLFTFGGGTKVDIK
notes: IgG1; also called Ab 696
Neutralization IC50 (RSV subtype A) [1]: > 25 µg/mL
Kd [2]: 47.4 nM
Kd [3]: 13.6 nM

B4: ADI-41407 (antibody, V domains shown)
VH: EVQLVESGGGLVQPGGSLRLSCAASGFTFSSNAMSWVRQAPGKGLEWVSYISGGSATKSYADSVKGRFTISRDNSKNTLYLQMKSLRAEDTAVYYCVGGSAYYSGFDYWGQGTLVTVSS
VL: DIVMTQSPSSLSASVGDRVTISCRASQDIRNYLAWYQQKPGKVPNLLIYAASTLESGVPSRFSGSGYGTDFTLTISGLQPEDVATYYCQKYDSAPPFTFGPGTKVDIK
notes: IgG1
Neutralization IC50 (RSV subtype A) [1]: > 25 µg/mL
Kd [2]: 2.08 nM
Kd [3]: 0.371 nM

B5: ADI-41431 (antibody, V domains shown)
VH: QVQLVQSGAEVKKPGASVRVSCTASGYRFFTYGITWVRQAPGQGLEWMGWISAYNGNTKFAQKFQGRLTMTTDAPTSTADMELRGLRSDDTAVYYCAREEGGYHGTGSNNYWGQGTLVTVSS
VL: QSVLTQPPSVSAAPGQKVTISCSGSGSNVGGNDVSWYQQFPGTAPKLLIYDNSKRPSGIPDRFSGSKSGTSATLVITGLQTGDEADYYCGTWDSSLSVGVFGTGTKLTVL
notes: IgG1; also called Ab 715
Neutralization IC50 (RSV subtype A) [1]: 2.38 µg/mL
Kd [2]: 0.744 nM
Kd [3]: 0.345 nM

B6: ADI-41440 (antibody, V domains shown)
VH: EVQLVESGGGLVKPGGSLRLSCAVSGFTFSDYTMNWVRQAPGKGLEWVSSISGSGTYIYYGDSVKGQFTISRDNAKNSLYLQMNSLRAEDTAVYYCARELPAKTIFGVDFLGGTTAYDCWGQGTPVTVSS
VL: EIVLTQSPATLSVSPGERATLSCRASQSVSSNLAWYQQKPGQAPRLLIYSATTRATGVPARFSGSGSGTEFTLTISSLRSEDFAVYYCQQYNNGGTFGPGTKVEIK
notes: IgG1; also called Ab 724
Neutralization IC50 (RSV subtype A) [1]: > 25 µg/mL
Kd [2]: 3.18 nM
Kd [3]: 1.23 nM

B7: ADI-41444 (antibody, V domains shown)
VH: EVQLVESGPRLVKPSQTLSLTCTVSGGSIGTGDYHWTWIRQSPGKGLEWIGNIYYNGRTFYNPSLKGRGSISRDASKNQFSLNLSSVSAADTAVYYCARDRAAKGFDHWGQGTLVTVSS
VL: DIQLTQSPSTLSASVGDRVTITCRASQNINGWLAWYQQKPGRVPKLLIYKASTLESGVPSRFSGSASGTEFTLTINNLLPDDFATYYCQQYNDYPYTFGQGTKVEIK
notes: IgG1
Neutralization IC50 (RSV subtype A) [1]: > 25 µg/mL
Kd [2]: 3.01 nM
Kd [3]: 0.541 nM

B8: ADI-41425 (antibody, V domains shown)
VH: EVQLLESGPAVVKPTQTLTLTCTVSGLSLSSPRMSVSWIRQPPGKGLEWLARIDWDGDKYYGTSLKTRLSISKDTSKNQVVLTMTNMDPVDTGTYYCAQTSIYASNAYYLARLDPWGQGMLVTVSS
VL: EIVMTQSPSLLSASVGDRVTITCRASQNIATYLNWYQQKPGKAPRLLIYAASNLQSGVPSGFSGSGSGTVFTLTISSLQPEDFATYFCQQSYETSLTFGGGTKVEIK
notes: IgG1
Neutralization IC50 (RSV subtype A) [1]: > 25 µg/mL
Kd [2]: 1.14 nM
Kd [3]: 0.496 nM

B9: ADI-41436 (antibody, V domains shown)
VH: EVQLLESGGGVVQPGRSLRLSCAASGFTFSDYAMHWVRQAPGKGLEWVALISFDGSNEYYADSVKGRFTISRDNSRNTVYLQVNTLRPDDTAVFYCARDSHLRLTTRGWGSFDYWGQGTLVTVSS
VL: NFMLTQPHSVSESPGKTVTIACTRSSGSIARNYVQWYQQRPGRSPTMVIYEDNQRPSGVPDRFSGSIDTSSNSASLTISGLKTEDEADYYCQPYDPDNLVFGGGTKLTVL
notes: IgG1; also called Ab 720
Neutralization IC50 (RSV subtype A) [1]: > 25 µg/mL
Kd [2]: 1.1 nM
Kd [3]: 0.237 nM

B10: ADI-41429 (antibody, V domains shown)
VH: QVQLVQSGAEVKKPGSSVKVSCKASGGTFSSYAISWVRQAPGQGLEWMGGIIPIFGTVNYAQKFPGRVTITADESTSTAYMELSSLRSEDTAIYYCARDSPSYTGSLLFSQYYYGMDVWGQGTTVTVSS
VL: QPVLTQPASVSGSPGQSITISCTGTSSDVGGYDYVSWYQHHPGKAPKLMIYEVSNRPSGVSNRFSGSKSGNTASLTISGLQAEDEADYYCSSFTTSSPRVFGTGTKLTVL
notes: IgG1; also called Ab 714
Neutralization IC50 (RSV subtype A) [1]: > 25 µg/mL
Kd [2]: 3.62 nM
Kd [3]: 1 nM

B11: ADI-41432 (antibody, V domains shown)
VH: QVQLVQSGAEVKKPGYSVKVSCKASGGTFSTFGISWVRQAPGLGLEWMGGIIPLFGTADYSKKYQGRVTITADESTSTGYMELNSLTPEDTAVYYCARSPGHLWSRYDAFEVWGQGTTVTVSS
VL: QPVLTQPRSVSGSPGQSVTISCSGTSSDVGGYNYVSWYQQYPGKAPKLIIYDVNKRPSGVPDRFSGSKSDNTASLTISGLQADDESDYFCCSYAGSHTFEVFGTGTKVTVL
notes: IgG1
Neutralization IC50 (RSV subtype A) [1]: > 25 µg/mL
Kd [2]: 2.05 nM
Kd [3]: 0.286 nM

B12: ADI-41427 (antibody, V domains shown)
VH: QVQLVESGPGLVKPSETLSLTCTVSGGSIGGYYWSWIRQPPGKGLEWIGYMYYSGSTNYNPSLKSRVTMSVDTSKNQFSLKLTSVTAADTAVYYCARVLRFLVGGMDVWGQGTTVTVSS
VL: QSVLIQPASVSGSPGQSITISCTGTSSDVGGYNYVSWYQQHPGKAPKLIIYEVSNRPSGVSNRFSGSKSGNTASLTISGLQAEDEADYYCNSYTTIATLVFGTGTKVTVL
notes: IgG1
Neutralization IC50 (RSV subtype A) [1]: > 25 µg/mL
Kd [2]: 2.7 nM
Kd [3]: 0.917 nM

B13: ADI-41445 (antibody, V domains shown)
VH: QVQLVQSGAEVKRPGSSVKVSCKAFGGSFSNYAINWVRQAPGQGLEWMGGISPVLGTAIYAKRFQGKVTITADKFANTAYMDLSSLRFEDTAVYYCARSPPHVEFPLTKWFDPWGQGTLVTVSS
VL: EIVMTQSPGTLSLSPGERATLSCRASQSVNSGYLAWYQHKPGRAPRLLIYGASNRATGVPDRFSGSGSGTDFTLTISRLEPEDFAVYYCQQYDNSLFTFGPGTKVDIK
notes: IgG1
Neutralization IC50 (RSV subtype A) [1]: > 25 µg/mL
Kd [2]: 3.04 nM
Kd [3]: 0.772 nM

B14: ADI-41403 (antibody, V domains shown)
VH: EVQLVESGGGLVKPGGSLRLSCAASGFTFGTYTMNWVRQAPGKGLEWVSSISSSSSHIYYADSVKGRFTISRDNARKALYLQMNSLRPEDTAVYFCARFLGDYGGDGNTYYYYYGMDVWGQGTTVTVSS
VL: EIVMTQSPLSLPVTPGEPASISCRSSQSLLHSNGKNYLDWYLQKPGQSPQLLIHLGSNRASGVPDRFSGSGSGTDFTLQISRVEAEDVGVYYCMQALQTPTFGGGTKLEIK
notes: IgG1
Neutralization IC50 (RSV subtype A) [1]: > 25 µg/mL
Kd [2]: 3.04 nM
Kd [3]: 0.841 nM

B15: ADI-41414 (antibody, V domains shown)
VH: EVQLLESGGGLAQPGRSLKVSCAASGVTVTSTYMGWVRQAPGKGLQWVSVIYSDGTTYYADSVKGRFTISRDHYKNTLYLQMNSLRAEDTALYYCARGNRRTDFGYWGQGTLVTVSS
VL: EIVMTQSPSTLSASVGDRVTITCRASQTISNWLAWYQQKPGKAPKLLIYQASTLESGVPSRFSGSGSGTEFTLTISSLQPDDFATYYCQQYNTYYTFGPGTKVEIK
notes: IgG1
Neutralization IC50 (RSV subtype A) [1]: > 25 µg/mL
Kd [2]: 2.7 nM
Kd [3]: 1.1 nM

B16: ADI-41443 (antibody, V domains shown)
VH: EVQLVESGGGVVQPGKSLRLSCAASGFTFSSYAMHWVRQAPGKGLEWVSVIWYEDSDKYYGDSVKGRFTISRDNSKNTLYLQMNSLRAEDTAVYYCARKSGGFGGLDYWGQGTLVTVSS
VL: DIVMTQSPLSLPVTPGEPASISCKSSQSLLTANGYNYLDWYVQKPGQSPHVLISLGSNRASGVPDRFSGSGSGTDFTLKISRVEAEDVGVYYCMQAIETPITFGQGTRLEIK
notes: IgG1; also called Ab 727
Neutralization IC50 (RSV subtype A) [1]: > 25 µg/mL
Kd [2]: 2.4 nM
Kd [3]: 0.373 nM

B17: ADI-41418 (antibody, V domains shown)
VH: EVQLVESGGGLVKPGGSLRLSCAASGLSFTDAWMGWVRQAPGKGLEWVGHIKKKTDYGPTAYAAPVRGRFTVSRDDSKNTLYLQMTSLKTEDTAVYYCITERGYNFGYNDYFGVDVWGQGTLVTVSS
VL: QPGLTQPPSVSVSPGQTARITCSGDALPKKYAYWYQQKSGQAPVMIIYEDNKRPSGIPERFSGSTSGTMATLTISGAQMEDEADYYCFSTDSGDDQSGVFGGGTRLTVL
notes: IgG1
Neutralization IC50 (RSV subtype A) [1]: > 25 µg/mL
Kd [2]: 1.58 nM
Kd [3]: 0.341 nM

B18: ADI-41446 (antibody, V domains shown)
VH: EVQLLESGGGLVQPGGSLRLSCAASGFTYYSYAMNWVRQAPGKGLEWVSAISGGGDNTFYAESVKGRFTISRDNAKNTLYLQMDSLRAEDTAVYYCAKDLQGYTSLYCFDYWGQGTLVTVSS
VL: EIVMTQSPATLSLSPGERAALSCRASQSVFNYVAWYQQKPGQAPRLLIYDTSKRATGIPARFSGSGSGTDFTLTISSLEPEDFAVYYCQHRYNWPGLIFGGGTKVEIK
notes: IgG1; also called Ab 730
Neutralization IC50 (RSV subtype A) [1]: > 25 µg/mL
Kd [2]: 3.6 nM
Kd [3]: 0.722 nM

B19: ADI-41405 (antibody, V domains shown)
VH: EVQLLESGGGLVQPGGSLRLSCAASGFSFSIYSMNWVRQAPGKGLEWISYITSTGSPTYYADSVKGRFTISRDNAKNSLYLQMSSLRAEDTAVYYCVTYCSSSSCPAEFDYWGQGTLVTVSS
VL: EIVLTQSPATLSLSPGERATLSCRASQSVNSYLAWYQQKPGQAPRLLIYDASNRATGIPARFSGSGSGTDFTLTISSLEAEDFAVYYCQHRNNWPALTFGGGTKVEIK
notes: IgG1
Neutralization IC50 (RSV subtype A) [1]: > 25 µg/mL
Kd [2]: 2.72 nM
Kd [3]: 0.458 nM
